# Paper PMC10206775
# Columns and labels:
# [1] = target: BmTFF3 (β-subunit of βγ-CAT) (Bombina maxima (endogenous in skin secretions))
# [2] = target: Bombina maxima IgG Fc-binding protein (FCGBP) (Bombina maxima (endogenous in skin secretions)); test: BLI; FCGBP (10 μg/ml, 0.01 M sodium acetate pH 4.0) amine-coupled to AR2G biosensors; βγ-CAT 1000-31.25 nM in PBS, association 300 s, dissociation 180 s; global fit, 1:1 binding model
Substance,"dye release from calcein liposomes (fluorescence at 518 nm, % of maximum) by BmALP1 polymer (50 nM) with BmTFF3 (200 nM) and FCGBP at 25, 50 and 150 nM [1] [%]",Kd [2] [nM]
BmALP1 (α-subunit of βγ-CAT) (natural protein),76.8,
βγ-CAT complex (BmALP1 and BmTFF3),,21.2
